From the supplement of paper PMC10126150
± gives the standard deviation of the averaged measurements.

System: ATP
Experiment: switch fluorescence ratio, 500 uM ATP over buffer (Cy3 cluster intensity, sum of 5 cycles each) (fold (ratio)); higher = stronger signal-on switching upon ATP binding; sequences stand for … in TCGTCGGCAGCGTCAGATGTGTATAAGAGACAGTTTTTTTTTTTTTTTTTTTTTTTTT…TC
Conditions: aptamer strand: ATP DNA aptamer (quencher-CACCTGGGGGAGTATTGCGGAGGAAGG + anchor), 100 nM annealed; ATP concentration: 500 uM
Procedure, shortened: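 Imaging in selection buffer was followed by imaging after 15 min with 500 uM ATP at 22 °C, for Cy3-labelled switching-strand clusters annealed to 100 nM quencher-labelled ATP aptamer on a modified Illumina MiSeq flow-cell. Five of these buffer/ATP cycles ran, separated by NaOH stripping and re-annealing. The fluorescence ratio per cluster is summed target-cycle over summed buffer-cycle Cy3 intensity, averaged per switch-domain sequence; clusters outside 100-1000 RFU were removed.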
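Note: ATP exposure 15 min at 22 °C before imaging.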

Sequence | switch fluorescence ratio
GAGGGACTAA | 0.9972 ± 0.0095
GAGGGACTCT | 0.964 ± 0.013
GAGGGAGCTT | 1.04 ± 0.026
GAGGGAGGAG | 1 ± 0.029
GAGGGATGGG | 0.975 ± 0.017
GAGGGATGTT | 1.01 ± 0.0092
GAGGGATTCC | 1.06 ± 0.095
GAGGGCACTT | 0.978 ± 0.043
GAGGGCCTTA | 0.9885 ± 0.0025
GAGGGCGGCG | 1.01 ± 0.11
GAGGGCTAGT | 0.9713 ± 0.0027
GAGGGGAAGC | 0.985 ± 0.046
GAGGGGACAG | 0.979 ± 0.035
GAGGGGAGAC | 1.02 ± 0.048
GAGGGGCAGT | 0.975 ± 0.02
GAGGGGCGAC | 0.974 ± 0.032
GAGGGGGCCC | 1.01 ± 0.026
GAGGGGGGCG | 1.04 ± 0.085
GAGGGGGTGC | 1.04 ± 0.069
GAGGGGTAGG | 0.977 ± 0.021
GAGGGGTATT | 0.986 ± 0.016
GAGGGGTCAG | 1 ± 0.039
GAGGGGTCCG | 1 ± 0.11
GAGGGGTGCA | 0.992 ± 0.015
GAGGGGTGGG | 1.04 ± 0.076

Sequence | switch fluorescence ratio
GAGGGGTTCG | 1.01 ± 0.022
GAGGGTACTG | 1.032 ± 0.0053
GAGGGTTAAG | 1.02 ± 0.029
GAGGGTTCGG | 0.972 ± 0.031
GAGGGTTTGA | 1.0098 ± 0.00022
GAGGTACTGG | 1.018 ± 0.008
GAGGTACTTT | 0.993 ± 0.022
GAGGTAGCGT | 1.01 ± 0.015
GAGGTATGGG | 0.9761 ± 0.0077
GAGGTATTAT | 0.9688 ± 0.0074
GAGGTCGAAA | 0.98 ± 0.013
GAGGTGAGTT | 0.983 ± 0.01
GAGGTGCCTA | 0.991 ± 0.02
GAGGTGGGCT | 1 ± 0.067
GAGGTGGGGG | 0.993 ± 0.029
GAGGTGGGTG | 1.015 ± 0.0056
GAGGTGTTGA | 0.9979 ± 0.003
GAGGTTAAAT | 0.992 ± 0.034
GAGGTTATAC | 1.38 ± 0.042
GAGGTTATAT | 0.992 ± 0.017
GAGGTTGGAT | 0.982 ± 0.016
GAGGTTGGGC | 0.993 ± 0.03
GAGGTTGTGG | 0.973 ± 0.06
GAGGTTTGGC | 0.988 ± 0.051
GAGTAAAATT | 1.13 ± 0.18

Sequence | switch fluorescence ratio
GAGTAAAGTC | 0.934 ± 0.029
GAGTAACTCG | 1.007 ± 0.0067
GAGTAACTGG | 0.983 ± 0.027
GAGTAAGTGC | 0.972 ± 0.053
GAGTAATGTT | 1.02 ± 0.016
GAGTACAAAA | 1.02 ± 0.015
GAGTACCAGG | 1.25 ± 0.017
GAGTACTAGT | 1.015 ± 0.0072
GAGTACTGAG | 1.163 ± 0.0012
GAGTACTGTT | 0.972 ± 0.045
GAGTAGGACC | 1.03 ± 0.016
GAGTAGTAGT | 0.967 ± 0.026
GAGTAGTATA | 0.992 ± 0.049
GAGTATCTTT | 0.998 ± 0.018
GAGTATGGGA | 0.983 ± 0.034
GAGTATTAAT | 1.01 ± 0.02
GAGTCATGAG | 1.06 ± 0.049
GAGTCGGTGG | 1.4 ± 0.63
GAGTCGTGTG | 1.04 ± 0.024
GAGTGAAGGG | 1.02 ± 0.016
GAGTGAAGGT | 0.9963 ± 0.008
GAGTGAGGCA | 0.981 ± 0.02
GAGTGAGTGG | 1.019 ± 0.0056
GAGTGATGGC | 1.03 ± 0.014
GAGTGCATGG | 1 ± 0.012

Sequence | switch fluorescence ratio
GAGTGCCGTG | 1.01 ± 0.065
GAGTGCGAAC | 1.05 ± 0.082
GAGTGCGGTT | 0.99 ± 0.057
GAGTGGGTAG | 1.03 ± 0.025
GAGTGGTTGC | 1.05 ± 0.12
GAGTGTCGGC | 0.9963 ± 0.0052
GAGTGTTTTG | 0.9957 ± 0.008
GAGTTAAGGA | 1.02 ± 0.03
GAGTTAGGCA | 1.029 ± 0.0098
GAGTTAGGGC | 0.99 ± 0.011
GAGTTAGGGG | 0.998 ± 0.018
GAGTTAGTAG | 0.966 ± 0.02
GAGTTAGTGT | 1.03 ± 0.017
GAGTTATCG | 1.01 ± 0.018
GAGTTATGG | 0.995 ± 0.043
GAGTTATGGA | 1.03 ± 0.019
GAGTTATTCG | 1.02 ± 0.023
GAGTTCAATG | 1.01 ± 0.03
GAGTTCGAGG | 1.02 ± 0.037
GAGTTCGCGT | 1.093 ± 0.0049
GAGTTGAGGG | 0.973 ± 0.023
GAGTTGGGAT | 1.01 ± 0.011
GAGTTGGGCT | 0.979 ± 0.012
GAGTTTAATC | 1 ± 0.018
GAGTTTAGGA | 0.969 ± 0.034

Sequence | switch fluorescence ratio
GAGTTTAGTT | 0.9893 ± 0.0064
GAGTTTGGG | 1 ± 0.02
GAGTTTGTGG | 0.998 ± 0.024
GAGTTTTATG | 0.9631 ± 0.0025
GAGTTTTGAG | 1 ± 0.011
GAGTTTTGCG | 1.03 ± 0.093
GAGTTTTGGA | 1.02 ± 0.026
GAGTTTTTGG | 0.973 ± 0.015
GAGTTTTTTA | 0.98 ± 0.046
GATAAAAGGC | 0.997 ± 0.024
GATAAAATAG | 1.17 ± 0.2
GATAAAGAAG | 0.9999 ± 0.0071
GATAACCATG | 0.9933 ± 0.0035
GATAACTGAA | 1.068 ± 0.0072
GATAAGTCAG | 0.989 ± 0.018
GATAATAAAC | 1.06 ± 0.045
GATAATTAGG | 1.01 ± 0.02
GATAATTGTC | 0.951 ± 0.048
GATAATTTTT | 0.9884 ± 0.0084
GATACATAAA | 1.036 ± 0.0092
GATACATCGG | 1.03 ± 0.018
GATACCTTCG | 2.614 ± 0.023
GATACGGGGC | 1.02 ± 0.014
GATACGGTTA | 1.03 ± 0.011
GATACTCAGC | 1.06 ± 0.0058

Sequence | switch fluorescence ratio
GATAGAAGTG | 0.986 ± 0.014
GATAGACCAG | 1.01 ± 0.025
GATAGAGGGA | 0.999 ± 0.01
GATAGATAGG | 0.967 ± 0.055
GATAGATCAC | 1.03 ± 0.03
GATAGCTTTT | 1.05 ± 0.082
GATAGGAAAT | 0.977 ± 0.036
GATAGGAGGG | 0.959 ± 0.012
GATAGGATAG | 0.991 ± 0.019
GATAGGGCGC | 1.02 ± 0.026
GATAGGGGGT | 1.01 ± 0.061
GATAGGGGTG | 1.03 ± 0.03
GATAGGGTAA | 0.988 ± 0.039
GATAGTAGTT | 0.9851 ± 0.0096
GATAGTCGTG | 0.994 ± 0.0056
GATAGTGAAG | 0.993 ± 0.015
GATAGTGC | 1.06 ± 0.078
GATAGTGGGA | 0.997 ± 0.018
GATAGTGTCG | 1.04 ± 0.045
GATAGTTGTA | 1.01 ± 0.028
GATATAGGTT | 1 ± 0.02
GATATATTGT | 0.993 ± 0.035
GATATCAACG | 1 ± 0.047
GATATGATCA | 0.9733 ± 0.0052
GATATGCTAC | 1.2 ± 0.023

Sequence | switch fluorescence ratio
GATATGCTAT | 0.9915 ± 0.0066
GATATGTTGG | 0.999 ± 0.017
GATATTAAAG | 1.02 ± 0.014
GATATTAGGA | 1 ± 0.088
GATATTGGGC | 1.02 ± 0.024
GATATTTGCG | 1.015 ± 0.0024
GATATTTGTG | 0.995 ± 0.016
GATATTTTTA | 0.98 ± 0.034
GATCAAAGGG | 1.01 ± 0.021
GATCAAGGGA | 1.03 ± 0.052
GATCACTCGT | 1 ± 0.048
GATCAGAGGG | 1.008 ± 0.01
GATCATCAGT | 0.991 ± 0.023
GATCATTCTT | 1.01 ± 0.016
GATCATTGAC | 1.066 ± 0.0057
GATCCAGAAG | 1.017 ± 0.0036
GATCCTGGGT | 0.974 ± 0.034
GATCGAAAGG | 0.966 ± 0.025
GATCGAGAGG | 0.98 ± 0.025
GATCGAGGCG | 0.9569 ± 0.0055
GATCGATTG | 1.05 ± 0.051
GATCGCGTGG | 0.968 ± 0.012
GATCGCTATC | 2.91 ± 0.39
GATCGGGAAC | 1.06 ± 0.031
GATCTAGGGC | 1.02 ± 0.037

Sequence | switch fluorescence ratio
GATCTATTTT | 1.01 ± 0.018
GATCTGCCTG | 0.985 ± 0.029
GATCTGGGGC | 1.06 ± 0.036
GATCTTAGGG | 0.989 ± 0.028
GATCTTGGGT | 1.11 ± 0.19
GATGAAAAAG | 1.033 ± 0.0093
GATGAAATTG | 0.953 ± 0.045
GATGAAGATT | 1.011 ± 0.005
GATGAAGGTA | 0.991 ± 0.052
GATGAATGGA | 0.959 ± 0.011
GATGAATTGG | 0.975 ± 0.012
GATGACTTGC | 1 ± 0.064
GATGAGAGGA | 1.03 ± 0.05
GATGAGCCCT | 1.03 ± 0.015
GATGAGCGCC | 1.03 ± 0.037
GATGAGGCGG | 0.9832 ± 0.0015
GATGAGGTGC | 1.07 ± 0.024
GATGATAAAA | 0.989 ± 0.033
GATGATAACG | 0.99754 ± 0.00091
GATGATCGTT | 0.988 ± 0.0094
GATGATCTAT | 1.01 ± 0.035
GATGATGGTG | 0.968 ± 0.011
GATGCAGTTC | 1.66 ± 0.053
GATGCATGC | 1.22 ± 0.065
GATGCCACAG | 1.02 ± 0.07
